In the supplement of paper PMC10567573:
± gives the standard deviation.

Experiment: protein stability index of a GFP-peptide fusion (GPS, HEK-293T) (PSI 1-6); higher = more stable
[1] = treatment: DMSO, c terminus: a fixed tail appended
[2] = treatment: MLN4924 1 uM, 8 h, c terminus: a fixed tail appended
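Note: 24-mer peptide tiles fused after GFP, lentivirally expressed, FACS-sorted into six equal bins by GFP/DsRed ratio, decoded by Illumina sequencing, PSI is the read-weighted mean bin number.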

| Sequence | protein stability index [1] | protein stability index [2] | protein stability index (treatment: DMSO, c terminus: native) | protein stability index (treatment: MLN4924 1 uM, 8 h, c terminus: native) |
| --- | --- | --- | --- | --- |
| DDKTDKRIFTFICKDSESNKHLCY [GULP1] | 2.47 ± 0.45 | 2.51 ± 0.26 | – | – |
| DESQISAEEAEDHGRIPDPDDFVP [FAM189A2] | 5.6 ± 0.2 | 5.61 ± 0.15 | – | – |
| SAESMVEYGTCMCLVKGIFYHCSN [SPRY1] | 2.65 ± 0.42 | 2.55 ± 0.34 | – | – |
| LEDLERELDEPQHEMVAHRHRQEV [ZSCAN9] | 5.56 ± 0.12 | 5.47 ± 0.072 | – | – |
| KHFKVQLVDNVYCIGQRRFHTMDE [NCK2] | 2.48 ± 0.16 | 2.44 ± 0.37 | – | – |
| DDGSQDPEVLDRESRDRPSCAPSA [PWWP2B] | 5.43 ± 0.17 | 5.21 ± 0.13 | – | – |
| FEQILSLPELKANPFKERICRVFS [CIB1] | 2.25 ± 0.2 | 2.38 ± 0.16 | – | – |
| HGHMCIAFELLGKNTFEFLKENNF [CLK3] | 2.55 ± 0.87 | 2.92 ± 1.3 | – | – |
| KKVLNHGYDDDNHDYIVRSGERWL [DYRK1B] | 3.27 ± 0.39 | 3.55 ± 0.49 | – | – |
| NWIELLSGETWNPLKLHYQLRNVR [GOLPH3] | 2.43 ± 0.73 | 2.36 ± 0.61 | – | – |
| RVLHDFGLDGYRGYSLADWVCLAY [SPACA3] | 2.2 ± 0.34 | 2.21 ± 0.18 | – | – |
| RVTVSRASSSRSVRTTRGKRKRVD [LMNB1] | 4.46 ± 0.2 | 4.34 ± 0.1 | – | – |
| CETTLFALRMATWNQILDPWVYIL [PTGFR] | 2.89 ± 0.16 | 2.93 ± 0.6 | – | – |
| PHSAKTEEHTTILRPSYTGLSSSS [CDC14A] | 4.4 ± 0.33 | 4.58 ± 0.2 | – | – |
| ASLDNGGCALTTFSVLEGEKNNHR [SOAT1] | 4.2 ± 0.31 | 4.34 ± 0.09 | – | – |
| VSFVIHNLPIIAKMAAVSKASGRF [SEPHS2] | 3.08 ± 0.29 | 2.75 ± 0.61 | – | – |
| MGSGTSTQHHFAFQNAERAFKAAA [PPEF2] | 3.46 ± 0.43 | 2.98 ± 0.25 | – | – |
| ATQSHSISSSSFGAEPSAPGGGGS [RTN3] | 5.19 ± 0.23 | 5.19 ± 0.093 | – | – |
| LRFCHNNKKAKRYLLHGLECVVAM [EIF5] | 2.14 ± 0.33 | 2.23 ± 0.6 | – | – |
| EAGAPGEEDIQGPTKADTEKWAEG [CHGB] | 5.64 ± 0.29 | 5.59 ± 0.32 | – | – |
| QYESIAAKNLQEAEEWYKSKYADL [PRPH] | 4.76 ± 0.23 | 4.49 ± 0.21 | – | – |
| LSILRHQNLLKELQDLALQGAKER [CHGA] | 3.02 ± 0.087 | 3.08 ± 0.27 | – | – |

| Sequence | protein stability index [1] | protein stability index [2] | protein stability index (treatment: DMSO, c terminus: native) | protein stability index (treatment: MLN4924 1 uM, 8 h, c terminus: native) |
| --- | --- | --- | --- | --- |
| TVSTSEVTSQQEPQIPVDRGSETT [TAF7L] | 5.49 ± 0.12 | 5.44 ± 0.16 | – | – |
| KGTPASKLILGMPTYGRSFTLASS [CHIT1] | 2.47 ± 0.28 | 2.54 ± 0.21 | – | – |
| EDKTFGLKNKKGAKQQKFIKAVTH [ZC3H15] | 4.26 ± 0.3 | 4.39 ± 0.23 | – | – |
| KELADFIRERATIEETYSKAMAKL [FCHO1] | 3.16 ± 0.21 | 3.31 ± 0.29 | – | – |
| CPRPCRESAFKLSTGTSRWPSAKS [SCNN1D] | 2.7 ± 0.62 | 2.65 ± 0.45 | – | – |
| YVKYQVAIHQDPPDECGKTEFTRF [ATE1] | 2.4 ± 0.2 | 2.56 ± 0.5 | – | – |
| TPLHVAAFLGDAEIIELLILSGAR [ANKRD44] | 2.57 ± 0.7 | 2.52 ± 0.22 | – | – |
| HHVADAYTSSQKVSPIQIDGAGRT [TOR1AIP2] | 3.53 ± 0.21 | 3.74 ± 0.46 | – | – |
| HTTRSSLRGPRERAPSERSGPAAS [DVL3] | 5.15 ± 0.24 | 4.75 ± 0.31 | – | – |
| AIALANSDSMHIEDVEAVQKLQDV [ESRRG] | 4.53 ± 0.092 | 4.66 ± 0.15 | – | – |
| SILRAPAYPLELQGQPDPAPRPGP [MOSPD3] | 4.53 ± 0.28 | 4.39 ± 0.43 | – | – |
| LDQPAFQQLVSFSESGSLGNSSGS [ISL2] | 4.43 ± 0.13 | 4.56 ± 0.075 | – | – |
| WLHALHLRQKGNRNTHKDLLRFAQ [FEM1B] | 2.44 ± 0.52 | 2.35 ± 0.15 | – | – |
| RALARNLIFGLITCLTGVLGVGLG [SPNS1] | 2.28 ± 0.32 | 2.92 ± 0.81 | – | – |
| TYSLPPFLKAVLRQERVSLYPFQI [CDS1] | 2.19 ± 0.8 | 2.12 ± 0.32 | – | – |
| KINENVAAGMRFPLPEAIDPDVGV [PCDHGA10] | 3.79 ± 0.081 | 4.26 ± 0.44 | – | – |
| CLVCGDVASGYHYGVASCEACKAF [ESRRA] | 3.96 ± 0.32 | 3.94 ± 0.23 | – | – |
| RLFQQSCPTGLVFSNSCKCCTWN [CHIT1] | – | – | 2.37 ± 0.44 | 2.37 ± 0.28 |
| ERQVLPDPEVLEAVGDRQDGLREQ [PBXIP1] | 5.54 ± 0.26 | 5.64 ± 0.1 | – | – |
| QAREKELLELQSQQACTHTKETEQ [CCDC89] | 5.55 ± 0.21 | 5.61 ± 0.17 | – | – |
| CDKYPHESQLPEEWENNRESLIVF [CPXM2] | 3.68 ± 0.11 | 3.44 ± 0.25 | – | – |
| PCAAAREGRLERRECGLAAPRFSF [IRX6] | 3.01 ± 0.21 | 2.89 ± 0.4 | – | – |

| Sequence | protein stability index [1] | protein stability index [2] | protein stability index (treatment: DMSO, c terminus: native) | protein stability index (treatment: MLN4924 1 uM, 8 h, c terminus: native) |
| --- | --- | --- | --- | --- |
| EKEYKTYKENFLKRFQLTKLPPYL [USP39] | 2.5 ± 0.17 | 2.93 ± 0.28 | – | – |
| WGGQEDREPAGRWKEGRPRVEESG [PBXIP1] | 4.79 ± 0.21 | 5.05 ± 0.099 | – | – |
| SEQESLLQQAQAQFRMAQEEARRN [SMG5] | 5.19 ± 0.2 | 5.14 ± 0.31 | – | – |
| DPKKLLTQYFVQENYLEYRQVPGS [MAGEA6] | 3.12 ± 0.1 | 3 ± 0.39 | – | – |
| MTNHQLSTTEWNDETLYQEFNGLK [CHIT1] | 4.37 ± 0.4 | 4.56 ± 0.19 | – | – |
| YQPEPFACGIEHCSVHYVSDSGDG [FBXO34] | 2.93 ± 0.27 | 3.04 ± 0.26 | – | – |
| KGRHHRGRGGEPRAYFMSDTREEK [CHGB] | 4.93 ± 0.12 | 4.95 ± 0.096 | – | – |
| YEFNPDFLEEAHEWNQKRARKAMR [N4BP2L1] | 3.88 ± 0.2 | 4.19 ± 0.29 | – | – |
| TLPYPVKIKVRFSFFLQIYLIMIF [HACD3] | 2.86 ± 0.94 | 2.84 ± 0.72 | – | – |
| IRQLQEQHYQQYMQQLYQVQLAQQ [ACBD3] | 2.23 ± 0.29 | 2.43 ± 0.24 | – | – |
| LDLSEEDSDDPSVTLELSQLSMLP [VDR] | 4.62 ± 0.3 | 4.73 ± 0.26 | – | – |
| QPRLSYAEMAEDYPRYPDIHDLDL [CLCN6] | 4.14 ± 0.27 | 4.24 ± 0.14 | – | – |
| CQMFLGKTEAEIAHIALETLEGHQ [FLOT1] | 3.36 ± 0.43 | 3.37 ± 0.13 | – | – |
| MSPLQAMSSYTVAGRNVLRWDLSP [NLN] | 2.06 ± 0.31 | 2.55 ± 0.42 | – | – |
| CGVILYILLVGYPPFWDEDQHRLY [CAMK2A] | 2.98 ± 0.6 | 3.24 ± 0.91 | – | – |
| VCNINKGCGYGCQLHHVVYCFMIA [FUT8] | 2.89 ± 0.42 | 3.2 ± 0.68 | – | – |
| GKKDKHSQSPRAAGPREGHSHSHH [PBXIP1] | 5.32 ± 0.31 | 5.26 ± 0.1 | – | – |
| LYSLTLYGLRGPHKADSIQGTART [TNXB] | 2.11 ± 0.21 | 2.48 ± 0.3 | – | – |
| MTDQQAEARSYLSEEMIAEFKAAF [TNNC2] | 4.22 ± 0.13 | 4.25 ± 0.16 | – | – |
| YSLVLELSDSGAFRRSLHDPDGLV [APMAP] | 2.28 ± 0.48 | 2.14 ± 0.38 | – | – |
| LHYKWIPVEDSHTADISSHFQEAI [DUSP5] | 2.17 ± 0.23 | 2.25 ± 0.52 | – | – |
